Results: paper PMC1802561 (Nucleic Acids Research, 2006)

T1: YoeB-His6 (Escherichia coli, UniProt P69348 1-84)
T1 sequence: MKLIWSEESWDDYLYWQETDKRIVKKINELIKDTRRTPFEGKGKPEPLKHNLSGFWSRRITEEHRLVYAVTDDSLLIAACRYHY

T2: YefM-His6 (Escherichia coli, UniProt P69346 1-83)
T2 sequence: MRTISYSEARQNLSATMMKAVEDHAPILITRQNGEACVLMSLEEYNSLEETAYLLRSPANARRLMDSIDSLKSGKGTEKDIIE

T3: YefM (native, intein-cleaved);YoeB (native, untagged) (Escherichia coli;Escherichia coli, UniProt P69346;P69348 1-83;1-84, |)
T3 sequence 1: T2 sequence
T3 sequence 2: T1 sequence

T4: His10-YefM (Escherichia coli, UniProt P69346 1-83)
T4 sequence: T2 sequence

T5: YefM (native, intein-cleaved) (Escherichia coli, UniProt P69346 1-83)
T5 sequence: T2 sequence

T6: YoeB (native, untagged) (Escherichia coli, UniProt P69348 1-84)
T6 sequence: T1 sequence

T7: native YoeB (Escherichia coli, UniProt P69348 1-84)
T7 sequence: T1 sequence

T8: YoeB-His6 (Escherichia coli, UniProt P69348 1-84)
T8 sequence: T1 sequence

B1: 99 bp yefM-yoeB promoter-operator (oligos 1/2) (dsDNA)
DNA 1: GTCGAGAATTCTCTACAAACTAATTAATAAATAGTTAATTAACGCTCATCATTGTACAATGAACTGTACAAAAGAGGAGATTGACATGGGATCCAGTGC
DNA 2: GCACTGGATCCCATGTCAATCTCCTCTTTTGTACAGTTCATTGTACAATGATGAGCGTTAATTAACTATTTATTAATTAGTTTGTAGAGAATTCTCGAC
B2: native YefM (natural protein)
chain: T2 sequence
B3: YefM of the YefM–YoeB–His6 complex (natural protein)
chain: T2 sequence

Tests used:
YoeB-His6 [1] = target: T1, YoeB-His6; experiment: EMSA
YefM-His6 = target: T2, YefM-His6; experiment: EMSA
[2] = target: T3, YefM (native, intein-cleaved);YoeB …; experiment: EMSA
His10-YefM = target: T4, His10-YefM; experiment: EMSA
[3] = target: T5, YefM (native, intein-cleaved); experiment: EMSA
YoeB (native, untagged) = target: T6, YoeB (native, untagged); experiment: EMSA
cross-linking = target: the molecule itself; experiment: cross-linking
native YoeB = target: T7, native YoeB; experiment: native gel or EMSA
YoeB-His6 [4] = target: T8, YoeB-His6; experiment: cross-linking

Binder	binding result (YoeB-His6 [1])	binding result (YefM-His6)	binding result [2]	binding result (His10-YefM)	binding result [3]	binding result (YoeB (native, untagged))	stoichiometry N (cross-linking)	binding result (native YoeB)	binding result (YoeB-His6 [4])
B1	no binding	binds	binds	binds	binds	no binding			
B2							2	binds	
B3							2		binds
